Measured values taken from patent publication US9315837B2, “Desaturases of a green microalga and uses thereof” (Ben Gurion University of the Negev Research and Development …, priority 2010, dated 2016).

Tested on: supplied fatty acids in S. cerevisiae strain W303
Assay: Functional expression of PiELO1 in S. cerevisiae fed with fatty acids, GC of FAMEs
Format: cell-based, Saccharomyces cerevisiae
From the text: The ORF encoding for PiELO1 was amplified using PfuUltra II fusion HS DNA polymerase (Stratagene, La Jolla, Calif.) with the forward primer, 5′-[…] (PUFAEL5RES1) (SEQ ID NO: 33), containing a restriction site (underlined) and a yeast translation consensus followed by ATG (double underlined) and the reverse primer 5′-[…] (PUFAEL3RES2) (SEQ ID NO: 34) containing a restriction site (underlined) and a stop codon (double underlined). The amplified sequence was then restricted with EcoRI and XbaI (NEB, Ipswich, Mass.). The expected bands were gel-purified with NucleoSpin Extract II purification kit (Machery-Nagel GmbH, Duren, Germany) and ligated into a EcoRI-Xba1 cut pYES2 vector, yielding YpPiELO1. Saccharomyces cerevisiae strain W303 was transformed with YpPiELO1 by the PEG/lithium acetate method. The yeast cells harboring the empty pYES2 vector were used as control. Transformants were selected by uracil prototrophy on yeast synthetic medium (YSM) lacking uracil (Invitrogen, Carlsbad, Calif.). For functional expression, a minimal selection medium containing 2% (w/v) raffinose was inoculated with the YpPiELO1-transformants and grown at 27° C. for 24 h in a water bath shaker. Five ml of sterile YSM, containing 1% (w/v) Tergitol-40 and 250 µM of the appropriate fatty acid was inoculated with raffinose-grown cultures to obtain an OD of 0.2 at 600 nm. Expression was induced by adding galactose to a final concentration of 2% (w/v) and cultures were further grown at 27° C. for 48 h. Cells were harvested by centrifugation, washed twice with 0.1% NaHCO3, freeze-dried and used for fatty acid analysis.
Fatty acid methyl esters (FAMES) were obtained by transmethylation of the freeze-dried P. incisa or yeast biomass, with dry methanol containing 2% H2SO4 (v/v) and heating at 80° C. for 1.5 h while stirring under an argon atmosphere. Gas chromatographic analysis of FAMES was performed on a Thermo Ultra Gas chromatograph (Thermo Scientific, Italy) equipped with PTV injector, FID detector and a fused silica capillary column (30 m×0.32 mm; ZB WAXplus, Phenomenex). FAMES were identified by co-chromatography with authentic standards (Sigma Chemical Co., St. Louis, Mo.; Larodan Fine Chemicals, Malmo, Sweden) and FAME of fish oil (Larodan Fine Chemicals). Each sample was analyzed in duplicates of three independent experiments. The structures of fatty acids were confirmed by GC-MS of their pyrrolidine derivatives [W. W. Christie, The analysis of fatty acids in: W. W. Christie (Ed.), Lipid analysis Isolation, separation, identification and structural analysis of lipids, vol. […]

B1: PiELO1: P. incisa Δ6 PUFA elongase, 289 amino acid residues, SEQ ID NO: 7 (protein, listed as Parietochloris incisa)
chain: MALTAAWHKYDAIVSRFVFDGLRRVGLQEIQGHPSVITAHLPFIASPTPQVTFVLAYLLIVVCGVAALRTRKSSAPREDPAWLRLLVQAHNLVLISLSAYMSSAACYYAWKYGYRFWGTNYSPKERDMGGLIYTFYVSKLYEFVDTLIMLLKGKVEQVSFLHVYHHASISTIWWAIAYVAPGGDAWYCCFLNSLVHVLMYTYYLLATLLGKDAKARRKYLWWGRYLTQFQMFQFVTMMLEAAYTWAYSPYPKFLSKLLFFYMITLLALFANFYAQKHGSSRAAKQKLQ
- elongation of supplied fatty acid (substrate 18:3ω6 (GLA), product DGLA, 20:3ω6): elongated
- elongation of supplied fatty acid (substrate 18:4ω3 (STA), product 20:4ω3): elongated
- elongation of supplied fatty acid (substrate ARA): did not result in their elongation
- elongation of supplied fatty acid (substrate LA): did not result in their elongation
